Measured values taken from patent US8889408B2, “Factor taking part in transcription control” (Sony Corporation, priority 2002, dated 2014).

Legend:
HDAC = assay: CAT reporter analysis with HDART in the presence of HDAC inhibitors; assay type: cell-based; settings: pcDNA3-HDART 1 μg
Experimental: In this example, however, a given amount of pcDNA3-HDART expression vector (1 μg) (“HDART+” in FIGS. 10) and 100 nM of TSA or […] of sodium butyrate was added to along with a ligand (ATRA or dexamethasone).

retinoic acid receptor = assay: RAR reporter CAT analysis in HepG2 cells; assay type: cell-based
Experimental: Since it is shown in the above example that HDART is able to interact with Skip, the functional role of HDART on the transcription route ascribed to a nuclear receptor was analyzed. First, the effect of HDART on the transcription regulation by retinoic acid receptor was analyzed. For this purpose, the CAT analysis was made using a RAR (retinoid acid receptor) reporter plasmid incorporating a thymidine kinase minimum promoter (pTREpal-tata) and CAT gene therein downstream of a retinoid response element.
More particularly, pcDNA3-HDART, capable of steadily expressing HDART, and, at the same time, RAR reporter plasmid, were transfected into HepG2 cells by use of Effectene kit (QIAGEN™). It is to be noted that the pcDNA3-HDART expression vector was introduced in different amounts of 0, 0.5 and 1.0 μg, and the amount of DNA in the respective transfections was equalized at 1 μg by adding the appropriate amount of a vacant vector of pcDNA. After the transfection, growth was made in the presence (10^−8 M) or absence of ATRA and the CAT activity was measured. The results of the measurement (FIG. 6) are indicated in terms of values corrected on the basis of the CAT activity obtained after introduction of 1.0 μg of a vacant vector in the absence of ATRA. In addition, the average of the results of three experiments and a standard deviation in terms of an error bar are also shown.
(§1) Next, the influence of the overexpression of N4TPR on the transcription from RAR or a glucocorticoid responsive promoter was checked. It will be noted that this test was made in the same manner as in the reporter analysis set out in Example 4, but using GFP-N4TPR expression vector (0, 0.3 and 0.5 μg).

MM-1-19-P cells = assay: ATRA-induced differentiation of MM-1-19-P rhabdomyosarcoma cells; assay type: cell-based, human
Source text: It is known that ATRA (all-trans retinoic acid) is an important inducer for tumor cell differentiation (20-22). The human rhabdomyosarcoma cell line MM-1-19-P is constituted mainly of small polygonal cells, which when provided with retinoic acid, ultimately differentiate into myotubular cytomegalic cells. In order to clarify the physiological role of HDART in the reaction ascribed to nuclear hormone receptors, the influence of the expression with HDART on the differentiation of MM-1-19-P caused by ATRA was analyzed.
MM-1-19-P cells were plated in a […] Petri dish, followed by co-transfection of the cells with 0.4 μg of pGFP vector and 2 μg of pcDNA3 (vacant vector) or pcDMA3-HDART (HDART expression vector). 24 hours after the transfection, the medium was changed with an ATRA-containing (2 μM) or ATRA-free fresh one. […] All experiments were repeated four times, and the number of cells assessed as positive for GFP was counted. It will be noted that in FIG. 12, the standard microphotographs of green fluorescence of GFP are shown in panels of FIGS. 12A, 12B, 12C and 12D, and the phase differential microphotographs are shown in panels of FIGS. 12E and 12F, respectively. In the figure, 12A indicates ATRA non-treated, vacant vector-introduced cells, 12B indicates ATRA treated, vacant vector-introduced cells, 12C indicates ATRA-non-treated, HDART expression vector-introduced cells, 12D indicates ATRA-treated, HDART expression vector-introduced cells, 12E indicates cells under the same conditions as in 12C above, and 12F indicates cells under the same conditions as in 12D above. In addition, the black arrow in the panel of FIG. 12F indicates undifferentiated GFP positive cells, and white arrow indicates differentiated cells.

[1] = tested on: glucocorticoid receptor (GR); assay: GR reporter CAT analysis in GR positive Hela cells; assay type: cell-based
Experimental: Furthermore, the action of HDART on the transcription regulation by glucocorticoid receptor (GR) was analyzed by use of GR reporter plasmid in GR positive Hela cells. The transcription activity of a glucocorticoid response promoter was carried out in the same manner as in the experiment for the retinoic acid receptor except for the use of Hela cells and 10^−8 M of dexamethasone. The results of the measurement are shown in the same manner as shown above.
as §1

Skip [2] = molecular target: T1, Skip (Homo sapiens, UniProt Q13573); assay: Yeast two-hybrid analysis (β-galactosidase) of HDART-Skip interaction; assay type: binding; set-up: expressed in transfected cells; host or cells: Saccharomyces cerevisiae Y190; settings: Gal4DBD-HDART and deletion mutants with Gal4AD-Skip; β-galactosidase activity
T1 sequence (Q13573 1-536): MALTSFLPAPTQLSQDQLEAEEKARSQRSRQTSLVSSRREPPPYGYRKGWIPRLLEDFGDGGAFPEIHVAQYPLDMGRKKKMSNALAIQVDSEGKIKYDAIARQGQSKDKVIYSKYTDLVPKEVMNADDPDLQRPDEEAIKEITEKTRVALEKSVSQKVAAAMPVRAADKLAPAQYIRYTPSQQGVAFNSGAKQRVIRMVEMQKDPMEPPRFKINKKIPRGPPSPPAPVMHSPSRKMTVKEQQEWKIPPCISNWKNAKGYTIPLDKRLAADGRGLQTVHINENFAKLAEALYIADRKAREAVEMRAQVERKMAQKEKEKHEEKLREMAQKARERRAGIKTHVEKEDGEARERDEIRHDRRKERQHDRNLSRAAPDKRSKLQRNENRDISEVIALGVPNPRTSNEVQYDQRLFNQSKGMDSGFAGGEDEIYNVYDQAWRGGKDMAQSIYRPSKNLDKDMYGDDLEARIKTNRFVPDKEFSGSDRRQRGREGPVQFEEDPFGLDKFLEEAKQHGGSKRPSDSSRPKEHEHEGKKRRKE
Source text: In order to isolate a protein that binds to this HDART, a yeast two-hybrid system was used. More particularly, a yeast MATCHMAKER two-hybrid analysis kit (Clontech) was used for the isolation. The ORF full length of HDART was inserted so that it and the Gal4 DNA binding domain reading frame were aligned in the same frame with each other within pAS-1 vector (Clontech). This bait plasmid was transformed into Saccharomyces cerevisiae Y190 along with pACT2 prey plasmid whose HeLa cDNA (Clontech) had been sub-cloned. The screening for clones into which both plasmids were introduced was carried out according to the kit protocol. […]
For mapping of regions on the Skip taking part in the interaction with HDART, a series of deletion mutations where various regions on Skip (N-terminus region (codon 1-220), nuclear hormone binding region (NHR binding, codon 221-388), and tran-activation region (TA, codon 438-536) were deleted, and the interaction between HDART and mutated Skip was analyzed according to the yeast two-hybrid analysis using Gal4DBD-HDART as set forth in Example 2. The results of the analysis are shown in FIG. 5A. The sign “+” indicated at the right of FIG. 5A indicates the observation of the interaction by the filter lift analysis of β-galactosidase activity, and the number of “+” indicates the relative intensity of the interaction. […]

Skip [3] = molecular target: T1, Skip; assay: Immunoprecipitation: N4TPR inhibition of endogenous HDART-Skip interaction in 293 cells; assay type: binding; set-up: expressed in transfected cells; host or cells: 293 cells; settings: GFP-N4TPR expressed versus GFP alone
Source text: RAR and TR inhibit the genetic activity in the absence of a ligand in vivo (Baniahmad, A., Kohne, A. C., and Renkawitz, R. (1992) Embo J 11(3), 1015-23) and in vitro (Fondell, J. D., Roy, A. L., and Roeder, R. G. (1993) Genes Dev 7(7B), 1400-10). From this, this is called active repression. Skip interacts with NHR independently of ligand (MacDonald, P. N., Baudino, T. A., Toumaru, H., Dowd, D. R., and Zhang, C. (2001) Steroids 66 (3-5), 171-6). […] In order to clarify these possibilities, a dominant negative line of HDART is overexpressed to check the influence on the transcription ascribed to RAR. As shown in Example 2, the four TRPs (N4TPR) at the N terminus of HDART are in the Skip binding region, so that it is hypothesized that the expression of this region inhibits the interaction between the endogenous HDART and Skip, it is inhibiting the natural function of HDART and functioning as a dominant negative. In this sense, the N4TPR was used as a candidate for dominant negative in this example.
Flag-Skip and N4TPR tagged with GFP or GFP were transfected into 293 cells. […] The expression of Flag-Skip was detected using an anti-Flag antibody, the expression of GFP and GFP-N4TPR detected using an anti-GFP antibody, and the expression of the internal HDART detected using an anti-HDART antibody, respectively (FIG. 11A).

[4] = absence of a ligand, GFP-N4TPR expression vector 0.5 μg (highest expression level)
[5] = absence of ligand, GFP-N4TPR expression vector 0.3 μg

How did the “expression repression by HDART” value (HDAC; 100 nM TSA added with ligand (ATRA or dexamethasone)) turn out when CC(/C=C/C(=O)NO)=C\[C@@H](C)C(=O)c1ccc(N(C)C)cc1 [triconstatin A, tricostatin A] was run?
Its value is “fully neutralized”.

How did the “expression repression by HDART” value (HDAC; 1 mA of sodium butyrate added with ligand (ATRA or dexamethasone)) turn out when CCCC(=O)[O-].[Na+] [sodium butyrate] was run?
Its value is “The same results were also observed”.

What does the source list for CC1=C(/C=C/C(C)=C/C=C/C(C)=C/C(=O)O)C(C)(C)CCC1 [ATRA, all-trans retinoic acid, reference compound]?
CAT activity (retinoic acid receptor; HepG2 cells receiving vacant vector (pcDNA), presence of ATRA 10^−8 M versus absence): increased five-fold; number of GFP positive cells (cytotoxic effect) (MM-1-19-P cells; cells treated with the vacant vector and ATRA 2 μM): less than 30%; morphological differentiation into muscle tissue (myotubular cytomegalic cells) (MM-1-19-P cells; vacant vector-introduced cells, ATRA 2 μM, 48 hours): differentiated into muscle tissue

B1: N4TPR: dominant negative peptide of HDART: four TPRs at the N terminus, amino acids 1 to 179 of SEQ ID NO: 2 (protein, listed as Homo sapiens)
chain: MVVMARLSRPERPDLVFEEEDLPYEEEIMRNQFSVKCWLRYIEFKQGAPKPRLNQLYERALKLLPCSYKLWYRYLKARRAQVKHRCVTDPAYEDVNNCHERAFVFMHKMPRLWLDYCQFLMDQGRVTHTRRTFDRALRALPITQHSRIWPLYLRFLRSHPLPETAVRGYRRFLKLSPES
What does the source list for B1?
transcription activity from the glucocorticoid responsive promoter [1, 4]: about 20 times; transcription activity from the glucocorticoid responsive promoter [1, 5]: increased up to the amount (gray column) of transcription activity induced by the presence of ligand; interaction with Skip (Skip [2]): ensures the interaction with Skip to a full extent; amount of HDART co-precipitated with Skip (Skip [3]): more reduced amount; transcription activation capability for the retinoic acid receptor compared with ATRA (retinoic acid receptor; N4TPR versus ATRA): higher transcription activation capability than ATRA; transcription activity from the RAR responsive promoter (retinoic acid receptor; [4]): about 20 times; transcription activity from the RAR responsive promoter (retinoic acid receptor; [5]): increased up to the amount (gray column) of transcription activity induced by the presence of ligand
